Measured values reported in PMC4787769.
Several values for one entry are separate records, joined by “and”; a condition that tells them apart may be missing. Identical values can stand only once. Like-named read-outs stand apart in the source and are kept apart here.

Assays:
[1] = biological target: KSHV LANA DNA binding domain, kLANA_(1008–1150) (KSHV); assay: SEC
[2] = biological target: KSHV LANA DNA binding domain, kLANA_(1008–1150) (KSHV); assay: SAXS
[3] = biological target: KSHV LANA DNA binding domain, kLANA_(1019–1150) (KSHV); assay: crystal structure
[4] = biological target: KSHV LANA DNA binding domain, kLANA_(1019–1150) (KSHV); assay: SEC; gel filtration in the presence of 1 M NaCl
[5] = biological target: MHV-68 LANA DNA binding domain, mLANA_(124–314) (MHV-68); assay: SEC
[6] = biological target: MHV-68 LANA DNA binding domain, mLANA_(124–314) (MHV-68); assay: SAXS
[7] = biological target: MHV-68 LANA DNA binding domain, mLANA_(124–314) (MHV-68); assay: SAXS; remark: listed apart in the source
[8] = biological target: kLANA_(1008–1150 (K1109E)) (KSHV); assay: SEC
[9] = biological target: kLANA_(1008–1150 (K1109E)) (KSHV); assay: SAXS
[10] = biological target: kLANA_(k1109E, A1121E) (KSHV); assay: SEC
[11] = biological target: kLANA_(k1109E, A1121E) (KSHV); assay: SEC; remark: listed apart in the source
[12] = biological target: mLANA DBD (Murine gammaherpesvirus 68 (MHV-68)) (UniProt O41974); assay: ITC

With “KSHV LANA DNA binding domain, kLANA_(1008–1150) (domain or fragment)” the stoichiometry N [1] was 2 and 4, the percent of the mixture present as octamer with two kLBS1–2 DNA [2] was 74% and the stoichiometry N [2] was 8 and 4.

For “KSHV LANA DNA binding domain, kLANA_(1019–1150) (domain or fragment)”, the stoichiometry N [3] was 2 and 4 and the stoichiometry N [4] was 2.

“MHV-68 LANA DNA binding domain, mLANA_(124–314) (domain or fragment)” was tested, and the stoichiometry N [5] was 2 and 4, the stoichiometry N [6] was 4 and the stoichiometry N [7] was 8.

For “kLANA_(1008–1150 (K1109E)) (domain or fragment)”, the stoichiometry N [8] was 2 and 4, the percent of species present as bent tetramer [9] was 20% and the percent of species present as dimer [9] was < 80%. The stoichiometry N [9] was 2 and 4.

With “kLANA_(k1109E, A1121E) (domain or fragment)” the stoichiometry N [10] was 4 and the stoichiometry N [11] was 2.

With kLBS1-2 the Kd [12] was 71.7 nM.
